Reference: patent US10370436B2, “Anti-pseudomonas Psl binding molecules and uses thereof” (priority 2011, dated 2019)

Experiments:
Assay type in all cases: cell-based, Pseudomonas aeruginosa
[1] = tested on: luminescent P. aeruginosa serogroup 05 strain (PAO1.lux); experiment: Opsonophagocytosis killing (OPK) assay, PAO1.lux; details: human IgG1 antibodies, differentiated HL-60 cells, baby rabbit serum, FIG. 2A
Experimental: (§1) This example describes the evaluation of prioritized human IgG1 antibodies to promote OPK of P. aeruginosa. […] OPK assays were performed as described in (DiGiandomenico, A., et al., Infect Immun 72, 7012-7021 (2004)), with modifications. Briefly, assays were performed in 96-well plates using 0.025 ml of each OPK component; P. aeruginosa strains; diluted baby rabbit serum; differentiated HL-60 cells; and monoclonal antibody. In some OPK assays, luminescent P. aeruginosa strains, which were constructed as described (Choi, K. H., et al., Nat Methods 2, 443-448 (2005)), were used. Luminescent OPK assays were performed as described above but with determination of relative luciferase units (RLUs) using a Perkin Elmer ENVISION Multilabel plate reader (Perkin Elmer).
This example describes two series of experiments evaluating the ability of PMB-mAb conjugates to promote OPK of P. aeruginosa. In the first experiments (FIGS. 15A-B), conjugate-mediated OPK activity by human HL-60 neutrophil cell line in the presence of rabbit complement was evaluated using P. aeruginosa strains expressing bacterial luciferase as described in Example 2. R347 was used as a negative control in these experiments. […] In the second series of experiments, reduction in luminescence following 2 h incubation relative to control lacking mAb was used to determine % killing.

[2] = tested on: P. aeruginosa strain 9882-80 (O11); experiment: OPK assay, strain 9882-80.lux; details: strain 9882-80.lux (O11); FIG. 2B
Experimental: as §1
The ability of the WapR-004 and Cam-003 antibodies to mediate OPK activity against another clinically relevant O-antigen serotype strain, 9882-80.lux, was evaluated.

[3] = tested on: P. aeruginosa PAO1.lux association with A549 cells; experiment: Cell attachment assay, PAO1.lux to A549 cells; details: MOI of 10, FIG. 4, FIG. 9B
Experimental: Anti-Psl antibodies were added to a confluent monolayer of A549 cells (an adenocarcinoma human alveolar basal epithelial cell line) grown in opaque 96-well plates (Nunc Nunclon Delta). Log-phase luminescent P. aeruginosa PAO1 strain (PAO1.lux) was added at an MOI of 10. After incubation of PAO1.lux with A549 cells at 37° C. for 1 hour, the A549 cells were washed, followed by addition of LB+0.5% glucose. Bacteria were quantified following a brief incubation at 37° C. as performed in the OPK assay described in Example 2. Measurements from wells without A549 cells were used to correct for non-specific binding.

B1: WapR-004: anti-Psl antibody, VH SEQ ID NO: 11 and VL SEQ ID NO: 12 (antibody, V domains shown)
VH: EVQLLESGPGLVKPSETLSLTCNVAGGSISPYYWTWIRQPPGKGLELIGYIHSSGYTDYNPSLKSRVTISGDTSKKQFSLHVSSVTAADTAVYFCARGDWDLLHALDIWGQGTLVTVSS
VL: EIVLTQSPSSLSTSVGDRVTITCRASQSIRSHLNWYQQKPGKAPKLLIYGASNLQSGVPSRFSGSGSGTDFTLTISSLQPEDFATYYCQQSYSFPLTFGGGTKLEIK
modifications: WapR-004 VH; WapR-004 & WarR-004RAD VL
- OPK activity (concentration dependent killing) [1]: superior OPK activity
- OPK activity [2]: OPK activity extends to strain 9882-80
- inhibition of association of PAO1.lux to A549 cells [3]: most active at inhibiting P. aeruginosa cell attachment to A549 lung epithelial cells
